In US20220332804A1 (CSL INNOVATION, published 2022):

Legend:
Experiment in all cases: SPR, KD relative to WT C2;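 further: biacore SPR at 37 °C, anti-C2 mAbs captured via immobilised goat anti-human IgG, C2 alanine or serine surface mutants as analytes, 1:1 model fitted, double-referenced sensograms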
human C2 S708A = target: T1, human C2 S708A (human, UniProt P06681 21-752)
T1 sequence: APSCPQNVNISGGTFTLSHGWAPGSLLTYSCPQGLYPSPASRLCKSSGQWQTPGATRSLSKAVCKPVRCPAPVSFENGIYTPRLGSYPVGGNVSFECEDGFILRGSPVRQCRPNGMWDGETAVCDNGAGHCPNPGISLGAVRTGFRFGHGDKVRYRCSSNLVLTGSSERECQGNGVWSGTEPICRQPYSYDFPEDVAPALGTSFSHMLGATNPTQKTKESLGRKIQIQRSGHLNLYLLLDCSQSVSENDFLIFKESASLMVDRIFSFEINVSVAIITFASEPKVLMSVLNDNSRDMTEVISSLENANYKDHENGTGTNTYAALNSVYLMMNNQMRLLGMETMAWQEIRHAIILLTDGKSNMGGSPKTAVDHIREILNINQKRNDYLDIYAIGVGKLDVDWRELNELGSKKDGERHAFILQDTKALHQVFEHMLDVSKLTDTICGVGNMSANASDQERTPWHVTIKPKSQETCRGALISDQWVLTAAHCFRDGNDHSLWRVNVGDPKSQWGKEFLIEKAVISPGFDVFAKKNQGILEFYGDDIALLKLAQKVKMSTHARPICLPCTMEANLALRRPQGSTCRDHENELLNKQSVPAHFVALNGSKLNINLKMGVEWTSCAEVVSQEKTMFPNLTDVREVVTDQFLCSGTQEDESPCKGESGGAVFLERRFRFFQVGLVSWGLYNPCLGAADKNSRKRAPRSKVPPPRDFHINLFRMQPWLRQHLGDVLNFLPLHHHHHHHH

human C2 P723A = target: T2, human C2 P723A (human, UniProt P06681 21-752)
T2 sequence: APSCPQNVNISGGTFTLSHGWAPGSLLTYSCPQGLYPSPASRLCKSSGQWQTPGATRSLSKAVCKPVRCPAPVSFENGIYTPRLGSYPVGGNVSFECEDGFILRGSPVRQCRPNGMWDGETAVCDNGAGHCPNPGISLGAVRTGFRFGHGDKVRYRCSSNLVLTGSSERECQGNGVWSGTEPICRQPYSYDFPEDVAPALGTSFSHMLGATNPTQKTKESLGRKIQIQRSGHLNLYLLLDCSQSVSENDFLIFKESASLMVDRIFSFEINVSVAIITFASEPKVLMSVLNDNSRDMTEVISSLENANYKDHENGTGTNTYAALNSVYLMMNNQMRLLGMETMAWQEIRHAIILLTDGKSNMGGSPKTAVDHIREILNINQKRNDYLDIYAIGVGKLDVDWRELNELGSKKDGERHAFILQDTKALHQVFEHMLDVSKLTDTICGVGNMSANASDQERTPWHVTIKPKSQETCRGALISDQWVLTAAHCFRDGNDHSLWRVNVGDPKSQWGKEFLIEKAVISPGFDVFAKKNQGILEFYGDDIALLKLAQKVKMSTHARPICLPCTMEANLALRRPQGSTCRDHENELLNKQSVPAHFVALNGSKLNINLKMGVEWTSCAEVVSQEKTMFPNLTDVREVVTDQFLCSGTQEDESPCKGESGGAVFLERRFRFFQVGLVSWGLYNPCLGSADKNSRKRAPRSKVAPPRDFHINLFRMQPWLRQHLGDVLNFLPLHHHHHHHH

human C2 Q447A = target: T3, human C2 Q447A (human, UniProt P06681 21-752)
T3 sequence: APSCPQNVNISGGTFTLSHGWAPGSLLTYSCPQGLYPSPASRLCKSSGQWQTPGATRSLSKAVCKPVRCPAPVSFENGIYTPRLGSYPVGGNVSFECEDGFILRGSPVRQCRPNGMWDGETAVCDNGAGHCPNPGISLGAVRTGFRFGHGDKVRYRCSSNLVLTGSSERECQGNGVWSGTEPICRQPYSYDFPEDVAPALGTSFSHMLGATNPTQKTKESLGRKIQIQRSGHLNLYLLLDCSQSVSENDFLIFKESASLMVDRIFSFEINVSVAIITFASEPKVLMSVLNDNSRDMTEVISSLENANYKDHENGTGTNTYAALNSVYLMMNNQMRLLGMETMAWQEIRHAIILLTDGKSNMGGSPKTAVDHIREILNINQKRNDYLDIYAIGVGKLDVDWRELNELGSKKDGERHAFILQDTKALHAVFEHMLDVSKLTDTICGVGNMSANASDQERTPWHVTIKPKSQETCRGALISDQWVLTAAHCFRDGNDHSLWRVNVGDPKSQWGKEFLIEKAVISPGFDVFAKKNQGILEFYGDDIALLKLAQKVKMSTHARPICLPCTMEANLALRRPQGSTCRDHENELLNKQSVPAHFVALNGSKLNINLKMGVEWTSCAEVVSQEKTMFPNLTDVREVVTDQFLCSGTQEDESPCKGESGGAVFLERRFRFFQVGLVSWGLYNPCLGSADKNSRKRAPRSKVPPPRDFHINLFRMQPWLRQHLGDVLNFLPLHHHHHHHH

human C2 K676S = target: T4, human C2 K676S (human, UniProt P06681 21-752)
T4 sequence: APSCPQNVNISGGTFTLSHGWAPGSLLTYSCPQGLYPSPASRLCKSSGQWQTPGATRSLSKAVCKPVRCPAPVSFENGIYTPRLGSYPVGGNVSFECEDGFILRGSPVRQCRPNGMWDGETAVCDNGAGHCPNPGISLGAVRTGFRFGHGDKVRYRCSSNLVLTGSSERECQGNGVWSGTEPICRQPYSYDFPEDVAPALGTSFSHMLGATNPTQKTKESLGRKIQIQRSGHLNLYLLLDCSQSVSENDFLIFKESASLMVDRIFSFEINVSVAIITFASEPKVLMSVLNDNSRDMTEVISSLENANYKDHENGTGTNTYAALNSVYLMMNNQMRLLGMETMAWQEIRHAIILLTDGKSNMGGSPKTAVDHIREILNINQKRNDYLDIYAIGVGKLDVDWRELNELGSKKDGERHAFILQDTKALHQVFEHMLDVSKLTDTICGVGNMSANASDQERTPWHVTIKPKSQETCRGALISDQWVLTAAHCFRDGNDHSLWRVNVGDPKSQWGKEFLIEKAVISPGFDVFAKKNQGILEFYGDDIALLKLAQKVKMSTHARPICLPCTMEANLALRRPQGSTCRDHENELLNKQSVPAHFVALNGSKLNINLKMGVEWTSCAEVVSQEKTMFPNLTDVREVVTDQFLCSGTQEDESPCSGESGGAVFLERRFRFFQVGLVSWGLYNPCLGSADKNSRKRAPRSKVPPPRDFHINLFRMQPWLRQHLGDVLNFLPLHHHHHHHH

B1: RF16-226 (antibody, human IgG4 S228P, lambda)
heavy: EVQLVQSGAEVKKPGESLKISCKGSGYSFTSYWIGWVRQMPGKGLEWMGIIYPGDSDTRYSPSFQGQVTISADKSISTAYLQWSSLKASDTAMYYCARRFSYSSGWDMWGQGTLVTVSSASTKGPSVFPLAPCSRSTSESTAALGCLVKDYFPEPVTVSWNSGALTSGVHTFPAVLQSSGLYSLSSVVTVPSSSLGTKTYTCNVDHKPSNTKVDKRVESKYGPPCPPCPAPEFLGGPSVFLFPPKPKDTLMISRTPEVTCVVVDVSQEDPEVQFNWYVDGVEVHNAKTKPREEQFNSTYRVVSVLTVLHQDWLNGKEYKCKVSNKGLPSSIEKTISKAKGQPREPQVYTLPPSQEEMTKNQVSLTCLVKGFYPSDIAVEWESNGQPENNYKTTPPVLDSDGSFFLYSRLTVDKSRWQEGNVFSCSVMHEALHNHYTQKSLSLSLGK
light: SYELTQPPSVSVSPGQTARITCSGDALTSKYVAWYQQKSGLAPLLVIYEDTRRPSGIPAKFSGSSSGSVATLTISGAHGDDEADYYCYSTDASGHQRVFGGGTKLTVLSQPKAAPSVTLFPPSSEELQANKATLVCLISDFYPGAVTVAWKADGSPVKAGVETTKPSKQSNNKYAASSYLSLTPEQWKSHRSYSCQVTHEGSTVEKTVAPTECS
notes: pH-dependent anti-C2 antibody from a phage display library; also called WT
Fold diff (human C2 S708A): 2 fold | Fold diff (human C2 P723A): 12 fold | Fold diff (human C2 Q447A): 1 fold | Fold diff (human C2 K676S): 2 fold
